Measurements from publication PMC3536700, “Structural Basis for Feed-Forward Transcriptional Regulation of Membrane Lipid Homeostasis in Staphylococcus aureus”.

How the values were obtained:
[1] = target: T1, SaFapR (Staphylococcus aureus RN4220, UniProt Q2FZ56 1-190); assay: ITC; first dimer, sequential binding model, 25 C; ITC: 50 mM Tris-HCl pH 8, 150 mM NaCl, 25 C; EMSA: 20 mM Tris-HCl pH 8, 350 mM NaCl, 10 mM MgCl2, 5 mM DTT, 15 min room temperature, native 5% PAGE in 45 mM Tris-borate pH 8, 1 mM EDTA; conditions: protein: recombinant; tags: N-terminal His-tag removed with TEV protease; chain copies: 2
T1 sequence: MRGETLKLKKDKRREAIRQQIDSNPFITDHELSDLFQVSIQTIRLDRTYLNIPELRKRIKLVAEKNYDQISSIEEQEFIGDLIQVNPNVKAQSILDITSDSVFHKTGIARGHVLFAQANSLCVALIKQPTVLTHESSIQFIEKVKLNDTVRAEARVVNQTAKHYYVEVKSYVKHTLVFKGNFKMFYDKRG

[2] = target: T1, SaFapR; assay: ITC; second dimer, sequential binding model, 25 C; ITC: 50 mM Tris-HCl pH 8, 150 mM NaCl, 25 C; EMSA: 20 mM Tris-HCl pH 8, 350 mM NaCl, 10 mM MgCl2, 5 mM DTT, 15 min room temperature, native 5% PAGE in 45 mM Tris-borate pH 8, 1 mM EDTA; conditions: protein: recombinant; tags: N-terminal His-tag removed with TEV protease; chain copies: 2

B1: PfapR operator 40 bp (dsDNA)
DNA 1: GCCAATTATATACTACTATTAGTACCTAGTCTTAATTCCG
DNA 2: CGGAATTAAGACTAGGTACTAATAGTAGTATATAATTGGC
- Kd [1]: 0.5 ± 0.1 nM
- Kd [2]: 51 ± 8 nM
